This passage reports capacity of the microbeads (µg per ml of microbead suspension) results from patent US20080274134A1.

For the experiment, the target named is Protein G on µMACS Protein G microbeads (Group G Streptococci) (UniProt P06654). In words: immobilisation on µMACS Protein G microbeads.
UniProt P06654, sequence (P06654 228-352): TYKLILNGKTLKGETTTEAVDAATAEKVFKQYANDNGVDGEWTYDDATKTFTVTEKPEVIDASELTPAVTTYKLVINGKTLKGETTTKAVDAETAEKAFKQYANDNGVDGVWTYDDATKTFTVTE
As for human monoclonal antibody 2F5, the capacity of the microbeads (µg per ml of microbead suspension) worked out at 95.

On to human monoclonal antibody 2G12, for which the capacity of the microbeads (µg per ml of microbead suspension) amounted to 60.

In the case of human monoclonal antibody IgG1b12, the capacity of the microbeads (µg per ml of microbead suspension) was 55.
